Experimental data from patent US20260365709 (published 2026).
Read-outs that look alike come from different tables or passages of the source.

T1: mIL10RaFc (Sino 51298-M02H) (mouse, UniProt Q61727)
T1 chain: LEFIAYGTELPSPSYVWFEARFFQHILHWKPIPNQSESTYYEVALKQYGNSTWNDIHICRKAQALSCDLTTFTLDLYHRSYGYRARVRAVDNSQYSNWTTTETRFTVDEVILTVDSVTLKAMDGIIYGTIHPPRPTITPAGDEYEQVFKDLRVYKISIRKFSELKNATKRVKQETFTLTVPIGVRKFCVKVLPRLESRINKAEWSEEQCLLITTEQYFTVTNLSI

T2: hIL10RaFc (R&D 9044-RI) (human, UniProt Q13651)
T2 chain: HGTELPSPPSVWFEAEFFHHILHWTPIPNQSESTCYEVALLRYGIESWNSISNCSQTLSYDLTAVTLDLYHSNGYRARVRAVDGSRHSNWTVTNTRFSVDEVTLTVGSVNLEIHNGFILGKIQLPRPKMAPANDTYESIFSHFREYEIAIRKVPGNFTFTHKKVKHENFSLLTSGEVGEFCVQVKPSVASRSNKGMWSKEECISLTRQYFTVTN


How the values were obtained:
Assay in all cases: SPR
[1] = target: T1, mIL10RaFc (Sino 51298-M02H)
[2] = target: T1, mIL10RaFc (Sino 51298-M02H)
hIL10RaFc (R&D 9044-RI) = target: T2, hIL10RaFc (R&D 9044-RI)

Kd [1] | Binder | also measured
3.37 nM | DR2820 (designed binder) GKCKAVEQVKSDFNKLQDQGVYKAMNEFDIFINAIEAYMMIKMKSQYSREDNNCTHFPVGQSHMLLELRTAFSQVKTFFQTKDQLDNILLTDSLMQCFKGYLGCQALSEMIQFYLVEVMPQAEKHGPEIKEHLNSLGEKLKTLRMRLRRCHRFLPCEN | 
4.49 nM | DR2821 (designed binder) GKSKACEQVKSDFNKLQDQGVYKAMNEFDIFINAIEAYMMIKMKSQYSREDNNCTHFPVGQSHMLLELRTAFSQVKTFFQTKDQLDNILLTDSLMQDFKGYLGCQALSCMIQFYLVEVMPQAEKHGPEIKEHLNSLGEKLKTLRMRLRRCHRFLPCEN | 
2.71 nM | DR2819 (designed binder) GKSKCVEQVKSDFNKLQDQGVYKAMNEFDIFINAIEAYMMIKMKSQYSREDNNCTHFPVGQSHMLLELRTAFSQVKTFFQTKDQLDNILLTDSLMQCFKGYLGCQALSEMIQFYLVEVMPQAEKHGPEIKEHLNSLGEKLKTLRMRLRRCHRFLPCEN | 
2.34 nM | DR2818 (designed binder) GKSKCVEQVKSDFNKLQDQGVYKAMNEFDIFINAIEAYMMIKMKSQYSREDNNCTHFPVGQSHMLLELRTAFSQVKTFFQTKDQLDNILLTDSCMQDFKGYLGCQALSEMIQFYLVEVMPQAEKHGPEIKEHLNSLGEKLKTLRMRLRRCHRFLPCEN | 
6.42 nM | DR2822 (designed binder) GKSKAVEQVKSDFNKLQDQGVYKAMNEFDIFINAIEAYMMIKMKSREDNNCTHFPVGQSHMLLELRTAFSQVKTFFQTKDQLDNILLTDSLMQDFKGYLGCQALSEMIQFYLVEVMPQAEKHGPEIKEHLNSLGEKLKTLRMRLRRCHRFLPCEN | 
 | mIL10 WT (protein, wild-type mouse IL10, homodimer; exact construct/tag not stated) SRGQYSREDNNCTHFPVGQSHMLLELRTAFSQVKTFFQTKDQLDNILLTDSLMQDFKGYLGCQALSEMIQFYLVEVMPQAEKHGPEIKEHLNSLGEKLKTLRMRLRRCHRFLPCENKSKAVEQVKSDFNKLQDQGVYKAMNEFDIFINCIEAYMMIKMKS | Kd [2]: 0.81 nM
5.27 nM | WC161_AA (mIL10 WT inverted monomer) (designed binder) NKSKAVEQVKSDFNKLQDQGVYKAMNEFDIFINAIEAYMMIKMKSSRGQYSREDNNCTHFPVGQSHMLLELRTAFSQVKTFFQTKDQLDNILLTDSLMQDFKGYLGCQALSEMIQFYLVEVMPQAEKHGPEIKEHLNSLGEKLKTLRMRLRRCHRFLPCENGGSHHHHHHHH | Kd [2]: 6.54 nM
2.7 nM | DR2806 (designed binder) GKSKAVEQVKSIFNKLQDQGVYKAMNEFDIFINAIEAYMMIKMKSSREDNNCTHFNVGLSHMLLELRTAFSQVKTFFQTKDQLDNILLTDSLMQDFKGYLGCQALSEMIQFYLVEVLPQAEKHGPEIKEHLNSLGEILKTLRMRLRRCHRFLPCEN | 
30.9 nM | DR2805 (designed binder) GKSKAVEQVKSIFNKLQDQGVYKAMNEFDIVINAIEAYMMIKMKSSREDNNCTHAPVMFSHMLLELRTAFSQVKTFFQTKDQLDNILLTDSLMQDFKGYLGCQALSEMIQFYLVEVLPQAEKHGPEIKEHLNSLGEILKTLRMRLRRCHRFLPCEN | 
1.59 nM | DR2804 (designed binder) GKSKAVEQVKSIFNKLQDQGVYKAMNEFDIFINAIEAYMMIKMKSSREDNNCTHAPVGMSHMLLELRTAFSQVKTFFQTKDQLDNILLTDSLMQDFKGYLGCQALSEMIQFYLVEVLPQAEKHGPEIKEHLISLGEILKTLRMRLRRCHRFLPCEN | 
1 nM | DR2815 (designed binder) GKSKAVEQVKSDFNKLQDQGVYKAMNEFDIFINAIEAYMMIKMKSSREDNNCTHFNVVMSHMLLELRTAFSQVKTFFQTKDQLDNILLTDSLMQDFKGYLGCQALSEMIQFYLVEVLPQAEKHGPEIKEHLNSLGEKLKTLRMRLRRCHRFLPCEN | 
1.61 nM | DR2816 (designed binder) GKSKAVEQVKSDFNKLQDQGVYKAMNEFDIFINAIEAYMMIKMKSSREDNNCTHAPVGQSHMLLELRTAFSQVKTFFQTKDQLDNILLTDSLMQDFKGYLGCQALSEMIQFYLVEVLPQAEKHGPEIKEHLNSLGEILKTLRMRLRRCHRFLPCEN | 
2.29 nM | DR2802 (designed binder) GKSKAVEQVKSIFNKLQDQGVYKAMNEFDIFINAIEAYMMIKMKSSREDNNCTHFMVAMSHMLLELRTAFSQVKTFFQTKDQLDNILLTDSLMQDFKGYLGCQALSEMIQFYLVEVLPQAEKHGPEIKEHLNSLGEKLKTLRMRLRRCHRFLPCEN | 
1.35 nM | DR2808 (designed binder) GKSKAVEQVKSIFNKLQDQGVYKAMNEFDIFINAIEAYMMIKMKSSREDNNCTHAPVGQSHMLLELRTAFSQVKTFFQTKDQLDNILLTDSLMQDFKGYLGCQALSEMIQFYLVEVLPQAEKHGPEIKEHLNSLGEILKTLRMRLRRCHRFLPCEN | 
39.9 nM | DR2813 (designed binder) GKSKAVEQVKSDFNKLQDQGVYKAMNEFDIFINAIEAYMMIKMKSSREDNNCTHFWVAMSHMLLELRTAASQVKTFFQTKDQLDNILLTDSLMQDFKGYLGCQALSEMIQFYLVEVLPQAEKHGPEIKEHLISLGEILKTLRMRLRRCHRFLPCEN | 
144 nM | DR2807 (designed binder) GKSKAVEQVKSIFNKLQDQGVYKAMNEFDIFINAIEAYMMIKMKSSREDNNCTHFPVGQSHMLLELRTAFSQVKTFFQTKDQLDNILLTDSLMQDFKGYLGCQALSEMIQFYLVEVMPQAEKHGPEIKEHLNSLGEKLKTLRMRLRRCHRFLPCEN | 
5.2 nM | DR2823 (designed binder) GKSKAVEQVKSDFNKLQDQGVYKAMNEFDIFINAIEAYMMIKMKSSREDNNCTHFPVGQSHMLLELRTAFSQVKTFFQTKDQLDNILLTDSLMQDFKGYLGCQALSEMIQFYLVEVMPQAEKHGPEIKEHLNSLGEKLKTLRMRLRRCHRFLPCEN | 
1.7 nM | DR2803 (designed binder) GKSKAVEQVKSIFNKLQDQGVYKAMNEFDIFINAIEAYMMIKMKSSREDNNCTHAPVAFWHMLLELRTAFSQVKTFFQTKDQLDNILLTDSLMQDFKGYLGCQALSEMIQFYLVEVLPQAEKHGPEIKEHLNSLGEILKTLRMRLRRCHRFLPCEN | 
1.65 nM | DR2817 (designed binder) GKSKAVEQVKSDFNKLQDQGVYKAMNEFDIFINAIEAYMMIKMKSSREDNNCTHAPVGQSHMLLELRTAFSQVKTFFQTKDQLDNILLTDSLMQDFKGYLGCQALSEMIQFYLVEVLPQAEKHGPEIKEHLNSLGEKLKTLRMRLRRCHRFLPCEN | 
17.3 nM | DR2809 (designed binder) GKSKAVEQVKSIFNKLQDQGVYKAMNEFDIFINAIEAYMMIKMKSSREDNNCTHAPVGQSHMLLELRTAFSQVKTFFQTKDQLDNILLTDSLMQDFKGYLGCQALSEMIQFYLVEVLPQAEKHGPEIKEHLNSLGEKLKTLRMRLRRCHRFLPCEN | 
 | hIL10 WT (protein, wild-type human IL10, homodimer; exact construct/tag not stated) SPGQGTQSENSCTHFPGNLPNMLRDLRDAFSRVKTFFQMKDQLDNLLLKESLLEDFKGYLGCQALSEMIQFYLEEVMPQAENQDPDIKAHVNSLGENLKTLRLRLRRCHRFLPCENKSKAVEQVKNAFNKLQEKGIYKAMSEFDIFINYIEAYMTMKIRN | Kd (hIL10RaFc (R&D 9044-RI)): 0.06 nM
 | h_DR1060_AA (hIL10 WT inverted monomer) (designed binder) KSKAVEQVKNAFNKLQEKGIYKAMSEFDIFINYIEAYMTMKIRNSPGQGTQSENSCTHFPGNLPNMLRDLRDAFSRVKTFFQMKDQLDNLLLKESLLEDFKGYLGCQALSEMIQFYLEEVMPQAENQDPDIKAHVNSLGENLKTLRLRLRRCHRFLPCENGGSHHHHHHHH | Kd (hIL10RaFc (R&D 9044-RI)): 0.38 nM
